Among the data in PMC8834124, “Enzymatic Preparation of Gentiooligosaccharides by a Thermophilic and Thermostable β-Glucosidase at a High Substrate Concentration” (Foods, 2022) are Km, kcat and kcat/Km values, retold here.

What all share (assay): purified protein
Format in all cases: biochemical, Thermotoga sp. KOL6

Series [1] concerns O=[N+]([O-])c1ccc(O[C@@H]2O[C@H](CO)[C@@H](O)[C@H](O)[C@H]2O)cc1.
Series [2] concerns OC[C@H]1O[C@@H](OC[C@H]2OC(O)[C@H](O)[C@@H](O)[C@@H]2O)[C@H](O)[C@@H](O)[C@@H]1O.
The test system of series [3] is OC[C@H]1O[C@@H](O[C@H]2C(O)O[C@H](CO)[C@@H](O)[C@@H]2O)[C@H](O)[C@@H](O)[C@@H]1O.
Series [4] deals with OC[C@H]1O[C@@H](O[C@H]2[C@H](O)[C@@H](CO)OC(O)[C@@H]2O)[C@H](O)[C@@H](O)[C@@H]1O.

“β-glucosidase TsBgl1 (Thermotoga sp. KOL6)”: the Km in series [1] was 240 µM; in series [2] it was 3680 µM; in series [3], 3950 µM; in series [4], 2170 µM. The turnover number (kcat) in series [1] is 124 s⁻¹; in series [2], 240 s⁻¹; in series [3], 218 s⁻¹; in series [4], 295 s⁻¹. Also, the kcat/Km was found to be 509000 M⁻¹ s⁻¹ in series [1], 65200 M⁻¹ s⁻¹ in series [2], 55300 M⁻¹ s⁻¹ in series [3] and 136000 M⁻¹ s⁻¹ in series [4].

Broadly, the Km is the substrate concentration at which the rate is half of its maximum. The term kcat denotes the maximal rate divided by the concentration of active sites. By kcat/Km is commonly meant the second-order rate constant that governs catalysis at low substrate concentration.
